Consider 14 variants from article PMC10119177 (2023).

B1: recombinant CEACAM1 N-terminal domain with His tag (rCEACAM1-N-HIS), wildtype [human] / IgI3 domain of R28 (R28-IgI3), wildtype [Streptococcus pyogenes] (parent complex)
chain 1: AQLTTESMPFNVAEGKEVLLLVHNLPQQLFGYSWYKGERVDGNRQIVGYAIGTQQATPGPANSGRETIYPNASLLIQNVTQNDTGFYTLQVIKSDLVNEEATGQFHVY
chain 2: TAPTLTVTPEQQTVKVDEDITFTVTVEDENEVELGLDDLKAKYENDIIGARVKIKYLTKEPNKKVMEVTIMKATLADKGAITFTAKDKAGNQAEPKTVTINVLPLKDSNEPKLPSTGGS

Variants of B1 are the subject of one test. Kind of test: Dynabead binding assay (Dynabeads coated with R28-IgI3, DB.R28IgI3, incubated with rCC1-N); parent: 33; read off a plot.
Take chain 2 TAPTLTVTPEQQTVKVDEDITFTVTVEDENEVELGLDDLKAKYENDAIGARVKIKYLTKEPNKKVMEVTIMKATLADKGAITFTAKDKAGNQAEPKTVTINVLPLKDSNEPKLPSTGGS [chain 2 I47A]: the response is approximately 5.5. The same measure, in the same setting: then chain 2 TAPTLTVTPEQQTVKVDEDITFTVTVEDENEVELGLDDLKAKYENDIAGARVKIKYLTKEPNKKVMEVTIMKATLADKGAITFTAKDKAGNQAEPKTVTINVLPLKDSNEPKLPSTGGS [chain 2 I48A], with approximately 5.5. The same measure, in the same setting: then chain 2 TAPTLTVTPEQQTVKVDEDITFTVTVEDENEVELGLDDLKAKYANDIIGARVKIKYLTKEPNKKVMEVTIMKATLADKGAITFTAKDKAGNQAEPKTVTINVLPLKDSNEPKLPSTGGS [chain 2 E44A], with approximately 40. With chain 2 TAPTLTVTPEQQTVKVDEDITFTVTVEDENEVELGLDDLKAKYENDIIGARVKIKYLTAEPNKKVMEVTIMKATLADKGAITFTAKDKAGNQAEPKTVTINVLPLKDSNEPKLPSTGGS [chain 2 K59A], the response was approximately 21. On the same count and under the same terms, as for chain 2 TAPTLTVTPEQQTVKVDEDITFTVTVEDENEVELGLDDLAAKYENDIIGARVKIKYLTKEPNKKVMEVTIMKATLADKGAITFTAKDKAGNQAEPKTVTINVLPLKDSNEPKLPSTGGS [chain 2 K40A], the figure is approximately 7. On the same count and under the same terms, as for chain 2 TAPTLTVTPEQQTVKVDEDITFTVTVEDENEVELGLDDLKAKYENDIIGARVKAKYLTKEPNKKVMEVTIMKATLADKGAITFTAKDKAGNQAEPKTVTINVLPLKDSNEPKLPSTGGS [chain 2 I54A], the figure is approximately 19; as for chain 2 TAPTLTVTPEQQTVKVDEDITFTVTVEDENEVELGLDDLKAKYENDIIGARVKIKALTKEPNKKVMEVTIMKATLADKGAITFTAKDKAGNQAEPKTVTINVLPLKDSNEPKLPSTGGS [chain 2 Y56A], approximately 7.

In the next test the parent is B1. Kind of test: Dynabead binding assay (Dynabeads coated with R28-IgI3, DB.R28IgI3, incubated with rCC1-N variants); parent: 23; read off a plot.
Consider chain 1 AQLTTESMPFNVAEGKEVLLLVHNLPQQLFGYSWYKGERVDGNRAIVGYAIGTQQATPGPANSGRETIYPNASLLIQNVTQNDTGFYTLQVIKSDLVNEEATGQFHVY [chain 1 Q45A], for which the response was approximately 20. As to chain 1 AQLTTESMPFNVAEGKEVLLLVHNLPQQLAGYSWYKGERVDGNRQIVGYAIGTQQATPGPANSGRETIYPNASLLIQNVTQNDTGFYTLQVIKSDLVNEEATGQFHVY [chain 1 F30A], the response was approximately 5.5. Still for that read-out and setting: then chain 1 AQLTTESMPFNVAEGKEVLLLVHNLPQQLFGYSWYKGERVDGNRQIVGYAIGTQQATPGPANSGRETIYPNASLLIQNVTQNDTGFYTLQVIKSDAVNEEATGQFHVY [chain 1 L96A], with approximately 6; and chain 1 AQLTTESMPFNVAEGKEVLLLVHNLPQQLFGYSWYKGERVDGNRQIVGYAIGTQQATPGPANSGRETIYPNASLLIQNVTQNDTGFYTLQVIKSDLVAEEATGQFHVY [chain 1 N98A], with approximately 90. On to chain 1 AQLTTESMPFNVAEGKEVLLLVHNLPQQLFGYSWYKGERVDGNRQIVGYAIGTQQATPGPANSGRETIYPNASLLIQNVTQNDTGFYTLQVAKSDLVNEEATGQFHVY [chain 1 I92A], for which the response was approximately 5. Same read-out and setting: as for chain 1 AQLTTESMPFNVAEGKEVLLLVHNLPQQLFGYSWYKGERVDGNRQIVGYAIGTQQATPGPANSGRETIYPNASLLIQNVTQNDTGFYTLAVIKSDLVNEEATGQFHVY [chain 1 Q90A], the figure is approximately 10.

With chain 1 AQLTTESMPFNVAEGKEVLLLVHNLPQQLFGYSWYKGERVDGNRQIVGYAIGTQQATPGPANSGRETIYPNASLLIQNVTQNDTGFYTLQVIKSDLANEEATGQFHVY [chain 1 V97A], the response is approximately 100.
